Measurements taken from US20160272683A1 (Novo Nordisk, published 2016).
* marks the point of attachment. C18 diacid = O=C(O)CCCCCCCCCCCCCCCCC(=O)*

These binders were tested against T1, human calcitonin receptor (human, UniProt P30988 25-474) (assay: whole-cell competition vs 125I-human calcitonin (Assay VIIa)).
T1 construct: whole, on cells; also called hCT-R; hCTR
T1 sequence (looked up): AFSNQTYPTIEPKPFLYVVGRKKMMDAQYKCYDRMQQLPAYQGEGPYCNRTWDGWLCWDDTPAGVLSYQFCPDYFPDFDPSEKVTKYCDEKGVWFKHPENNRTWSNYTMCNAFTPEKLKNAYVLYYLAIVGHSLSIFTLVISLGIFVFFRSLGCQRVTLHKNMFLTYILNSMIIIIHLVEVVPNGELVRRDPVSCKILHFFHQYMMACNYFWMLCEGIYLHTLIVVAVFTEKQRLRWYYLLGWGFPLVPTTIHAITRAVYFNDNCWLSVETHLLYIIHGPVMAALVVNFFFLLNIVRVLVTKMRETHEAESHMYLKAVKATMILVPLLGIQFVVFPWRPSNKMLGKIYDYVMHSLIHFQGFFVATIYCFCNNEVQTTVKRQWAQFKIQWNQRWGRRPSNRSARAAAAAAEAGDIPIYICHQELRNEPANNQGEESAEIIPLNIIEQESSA
In short: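 BHK tk'ts 13 cells stably co-expressing human calcitonin receptor and a CRE-luciferase reporter, seeded overnight at 37 °C. Bound tracer counted by scintillation after cold HBSS washes and NaOH/SDS lysis; IC₅₀ from one-site competition fit taken as receptor affinity.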

| IC50 | Binder |
| --- | --- |
| 419 pM | {C18 diacid}-EASELSTAALGRLSAELHEIATLPRTETGPESP-NH2 (SMILES CC[C@H](C)[C@H](NC(=O)[C@H](CCC(=O)O)NC(=O)[C@H](Cc1c[nH]cn1)NC(=O)[C@H](CC(C)C)NC(=O)[C@H](CCC(=O)O)NC(=O)[C@H](C)NC(=O)[C@H](CO)NC(=O)[C@H](CC(C)C)NC(=O)[C@H](CCCNC(=N)N)NC(=O)CNC(=O)[C@H](CC(C)C)NC(=O)[C@H](C)NC(=O)[C@H](C)NC(=O)[C@@H](NC(=O)[C@H](CO)NC(=O)[C@H](CC(C)C)NC(=O)[C@H](CCC(=O)O)NC(=O)[C@H](CO)NC(=O)[C@H](C)NC(=O)[C@H](CCC(=O)O)NC(=O)CCCCCCCCCCCCCCCCC(=O)O)[C@@H](C)O)C(=O)N[C@@H](C)C(=O)N[C@H](C(=O)N[C@@H](CC(C)C)C(=O)N1CCC[C@H]1C(=O)N[C@@H](CCCNC(=N)N)C(=O)N[C@H](C(=O)N[C@@H](CCC(=O)O)C(=O)N[C@H](C(=O)NCC(=O)N1CCC[C@H]1C(=O)N[C@@H](CCC(=O)O)C(=O)N[C@@H](CO)C(=O)N1CCC[C@H]1C(N)=O)[C@@H](C)O)[C@@H](C)O)[C@@H](C)O, also called Ex. #12) [[N-terminal(C18 diacid), 20I]mimylin] |
| 315 pM | {C18 diacid}-EASELSTAALGRLSAELHELATLPRTETGSGSP-NH2 (also called Ex. #21) [[N-terminal(C18 diacid), 30S, 31G]mimylin] |
| 1170 pM | {C18 diacid}-EASELSTAALGRLSAELHELATLPRTETGPEHP-NH2 (SMILES CC(C)C[C@H](NC(=O)[C@H](C)NC(=O)[C@H](C)NC(=O)[C@@H](NC(=O)[C@H](CO)NC(=O)[C@H](CC(C)C)NC(=O)[C@H](CCC(=O)O)NC(=O)[C@H](CO)NC(=O)[C@H](C)NC(=O)[C@H](CCC(=O)O)NC(=O)CCCCCCCCCCCCCCCCC(=O)O)[C@@H](C)O)C(=O)NCC(=O)N[C@@H](CCCNC(=N)N)C(=O)N[C@@H](CC(C)C)C(=O)N[C@@H](CO)C(=O)N[C@@H](C)C(=O)N[C@@H](CCC(=O)O)C(=O)N[C@@H](CC(C)C)C(=O)N[C@@H](Cc1c[nH]cn1)C(=O)N[C@@H](CCC(=O)O)C(=O)N[C@@H](CC(C)C)C(=O)N[C@@H](C)C(=O)N[C@H](C(=O)N[C@@H](CC(C)C)C(=O)N1CCC[C@H]1C(=O)N[C@@H](CCCNC(=N)N)C(=O)N[C@H](C(=O)N[C@@H](CCC(=O)O)C(=O)N[C@H](C(=O)NCC(=O)N1CCC[C@H]1C(=O)N[C@@H](CCC(=O)O)C(=O)N[C@@H](Cc1c[nH]cn1)C(=O)N1CCC[C@H]1C(N)=O)[C@@H](C)O)[C@@H](C)O)[C@@H](C)O, also called Ex. #18) [[N-terminal(C18 diacid), 32H]mimylin] |

Continued, binder first:

| Binder | IC50 |
| --- | --- |
| {C18 diacid}-EASELSTAVLGRLSAELAELATLPRTETGPESP-NH2 (SMILES CC(C)C[C@H](NC(=O)[C@H](CCC(=O)O)NC(=O)[C@H](C)NC(=O)[C@H](CO)NC(=O)[C@H](CC(C)C)NC(=O)[C@H](CCCNC(=N)N)NC(=O)CNC(=O)[C@H](CC(C)C)NC(=O)[C@@H](NC(=O)[C@H](C)NC(=O)[C@@H](NC(=O)[C@H](CO)NC(=O)[C@H](CC(C)C)NC(=O)[C@H](CCC(=O)O)NC(=O)[C@H](CO)NC(=O)[C@H](C)NC(=O)[C@H](CCC(=O)O)NC(=O)CCCCCCCCCCCCCCCCC(=O)O)[C@@H](C)O)C(C)C)C(=O)N[C@@H](C)C(=O)N[C@@H](CCC(=O)O)C(=O)N[C@@H](CC(C)C)C(=O)N[C@@H](C)C(=O)N[C@H](C(=O)N[C@@H](CC(C)C)C(=O)N1CCC[C@H]1C(=O)N[C@@H](CCCNC(=N)N)C(=O)N[C@H](C(=O)N[C@@H](CCC(=O)O)C(=O)N[C@H](C(=O)NCC(=O)N1CCC[C@H]1C(=O)N[C@@H](CCC(=O)O)C(=O)N[C@@H](CO)C(=O)N1CCC[C@H]1C(N)=O)[C@@H](C)O)[C@@H](C)O)[C@@H](C)O, also called Ex. #33) [[N-terminal(C18 diacid), 9V, 18A]mimylin] | 752 pM |
| {C18 diacid}-EASELSTAVLGRLSAELHELATLPPTETGPESP-NH2 (SMILES CC(C)C[C@H](NC(=O)[C@H](CCC(=O)O)NC(=O)[C@H](Cc1c[nH]cn1)NC(=O)[C@H](CC(C)C)NC(=O)[C@H](CCC(=O)O)NC(=O)[C@H](C)NC(=O)[C@H](CO)NC(=O)[C@H](CC(C)C)NC(=O)[C@H](CCCNC(=N)N)NC(=O)CNC(=O)[C@H](CC(C)C)NC(=O)[C@@H](NC(=O)[C@H](C)NC(=O)[C@@H](NC(=O)[C@H](CO)NC(=O)[C@H](CC(C)C)NC(=O)[C@H](CCC(=O)O)NC(=O)[C@H](CO)NC(=O)[C@H](C)NC(=O)[C@H](CCC(=O)O)NC(=O)CCCCCCCCCCCCCCCCC(=O)O)[C@@H](C)O)C(C)C)C(=O)N[C@@H](C)C(=O)N[C@H](C(=O)N[C@@H](CC(C)C)C(=O)N1CCC[C@H]1C(=O)N1CCC[C@H]1C(=O)N[C@H](C(=O)N[C@@H](CCC(=O)O)C(=O)N[C@H](C(=O)NCC(=O)N1CCC[C@H]1C(=O)N[C@@H](CCC(=O)O)C(=O)N[C@@H](CO)C(=O)N1CCC[C@H]1C(N)=O)[C@@H](C)O)[C@@H](C)O)[C@@H](C)O, also called Ex. #31) [[N-terminal(C18 diacid), 9V, 25P]mimylin] | 506 pM |
| {C18 diacid}-EASELSTAVLGRLSAELHELATLPRTEPGPESP-NH2 (SMILES CC(C)C[C@H](NC(=O)[C@H](CCC(=O)O)NC(=O)[C@H](Cc1c[nH]cn1)NC(=O)[C@H](CC(C)C)NC(=O)[C@H](CCC(=O)O)NC(=O)[C@H](C)NC(=O)[C@H](CO)NC(=O)[C@H](CC(C)C)NC(=O)[C@H](CCCNC(=N)N)NC(=O)CNC(=O)[C@H](CC(C)C)NC(=O)[C@@H](NC(=O)[C@H](C)NC(=O)[C@@H](NC(=O)[C@H](CO)NC(=O)[C@H](CC(C)C)NC(=O)[C@H](CCC(=O)O)NC(=O)[C@H](CO)NC(=O)[C@H](C)NC(=O)[C@H](CCC(=O)O)NC(=O)CCCCCCCCCCCCCCCCC(=O)O)[C@@H](C)O)C(C)C)C(=O)N[C@@H](C)C(=O)N[C@H](C(=O)N[C@@H](CC(C)C)C(=O)N1CCC[C@H]1C(=O)N[C@@H](CCCNC(=N)N)C(=O)N[C@H](C(=O)N[C@@H](CCC(=O)O)C(=O)N1CCC[C@H]1C(=O)NCC(=O)N1CCC[C@H]1C(=O)N[C@@H](CCC(=O)O)C(=O)N[C@@H](CO)C(=O)N1CCC[C@H]1C(N)=O)[C@@H](C)O)[C@@H](C)O, also called Ex. #32) [[N-terminal(C18 diacid), 9V, 28P]mimylin] | 3350 pM |
| {C18 diacid}-EASELSTAVLGRLSAELHELATLPRTETGPESP-NH2 (SMILES CC(C)C[C@H](NC(=O)[C@H](CCC(=O)O)NC(=O)[C@H](Cc1c[nH]cn1)NC(=O)[C@H](CC(C)C)NC(=O)[C@H](CCC(=O)O)NC(=O)[C@H](C)NC(=O)[C@H](CO)NC(=O)[C@H](CC(C)C)NC(=O)[C@H](CCCNC(=N)N)NC(=O)CNC(=O)[C@H](CC(C)C)NC(=O)[C@@H](NC(=O)[C@H](C)NC(=O)[C@@H](NC(=O)[C@H](CO)NC(=O)[C@H](CC(C)C)NC(=O)[C@H](CCC(=O)O)NC(=O)[C@H](CO)NC(=O)[C@H](C)NC(=O)[C@H](CCC(=O)O)NC(=O)CCCCCCCCCCCCCCCCC(=O)O)[C@@H](C)O)C(C)C)C(=O)N[C@@H](C)C(=O)N[C@H](C(=O)N[C@@H](CC(C)C)C(=O)N1CCC[C@H]1C(=O)N[C@@H](CCCNC(=N)N)C(=O)N[C@H](C(=O)N[C@@H](CCC(=O)O)C(=O)N[C@H](C(=O)NCC(=O)N1CCC[C@H]1C(=O)N[C@@H](CCC(=O)O)C(=O)N[C@@H](CO)C(=O)N1CCC[C@H]1C(N)=O)[C@@H](C)O)[C@@H](C)O)[C@@H](C)O, also called Ex. #9) [[N-terminal(C18 diacid), 9V]mimylin] | 736 pM |
| {C18 diacid}-EASELSTAALGRLSAEIHELATLPRTETGPESP-NH2 (SMILES CC[C@H](C)[C@H](NC(=O)[C@H](CCC(=O)O)NC(=O)[C@H](C)NC(=O)[C@H](CO)NC(=O)[C@H](CC(C)C)NC(=O)[C@H](CCCNC(=N)N)NC(=O)CNC(=O)[C@H](CC(C)C)NC(=O)[C@H](C)NC(=O)[C@H](C)NC(=O)[C@@H](NC(=O)[C@H](CO)NC(=O)[C@H](CC(C)C)NC(=O)[C@H](CCC(=O)O)NC(=O)[C@H](CO)NC(=O)[C@H](C)NC(=O)[C@H](CCC(=O)O)NC(=O)CCCCCCCCCCCCCCCCC(=O)O)[C@@H](C)O)C(=O)N[C@@H](Cc1c[nH]cn1)C(=O)N[C@@H](CCC(=O)O)C(=O)N[C@@H](CC(C)C)C(=O)N[C@@H](C)C(=O)N[C@H](C(=O)N[C@@H](CC(C)C)C(=O)N1CCC[C@H]1C(=O)N[C@@H](CCCNC(=N)N)C(=O)N[C@H](C(=O)N[C@@H](CCC(=O)O)C(=O)N[C@H](C(=O)NCC(=O)N1CCC[C@H]1C(=O)N[C@@H](CCC(=O)O)C(=O)N[C@@H](CO)C(=O)N1CCC[C@H]1C(N)=O)[C@@H](C)O)[C@@H](C)O)[C@@H](C)O, also called Ex. #11) [[N-terminal(C18 diacid), 17I]mimylin] | 1370 pM |
| {C18 diacid}-EASELSTAALGRLSAELAELATLPRTETGPESP-NH2 (SMILES CC(C)C[C@H](NC(=O)[C@H](C)NC(=O)[C@H](C)NC(=O)[C@@H](NC(=O)[C@H](CO)NC(=O)[C@H](CC(C)C)NC(=O)[C@H](CCC(=O)O)NC(=O)[C@H](CO)NC(=O)[C@H](C)NC(=O)[C@H](CCC(=O)O)NC(=O)CCCCCCCCCCCCCCCCC(=O)O)[C@@H](C)O)C(=O)NCC(=O)N[C@@H](CCCNC(=N)N)C(=O)N[C@@H](CC(C)C)C(=O)N[C@@H](CO)C(=O)N[C@@H](C)C(=O)N[C@@H](CCC(=O)O)C(=O)N[C@@H](CC(C)C)C(=O)N[C@@H](C)C(=O)N[C@@H](CCC(=O)O)C(=O)N[C@@H](CC(C)C)C(=O)N[C@@H](C)C(=O)N[C@H](C(=O)N[C@@H](CC(C)C)C(=O)N1CCC[C@H]1C(=O)N[C@@H](CCCNC(=N)N)C(=O)N[C@H](C(=O)N[C@@H](CCC(=O)O)C(=O)N[C@H](C(=O)NCC(=O)N1CCC[C@H]1C(=O)N[C@@H](CCC(=O)O)C(=O)N[C@@H](CO)C(=O)N1CCC[C@H]1C(N)=O)[C@@H](C)O)[C@@H](C)O)[C@@H](C)O, also called Ex. #13) [[N-terminal(C18 diacid), 18A]mimylin] | 279 pM |
